B1: 3xHRE probe (dsDNA)
DNA 1: GAAGAAGGAAGAAGGAAGAAG
DNA 2: CTTCTTCCTTCTTCCTTCTTC
B2: HSE probe (dsDNA)
DNA 1: TCGACTTCTAGAAGCTTCCAGAAATTAG
DNA 2: CTAATTTCTGGAAGCTTCTAGAAGTCGA

How the values were obtained:
His6-HsfA2 [1] = biological target: T1, His6-HsfA2 (Arabidopsis thaliana Col-0, UniProt O80982 1-345); assay: EMSA; EMSA: LightShift kit 1x binding buffer, 50 ng poly(dI-dC), 2.5% glycerol, 0.05% NP-40, 5 mM MgCl2, 100 ng protein, 1.5 ng probe, 30 min, room temperature; pull-down: 50 mM Tris-HCl pH 7.5, 100 mM NaCl, 0.1% Triton X-100, poly(dI-dC), 25 C; settings: protein: recombinant; tags: His6 (pET-28a); chain copies: 3; label: 5' biotin; blunt
His6-S-HsfA4c = His6-S-HsfA4c (Arabidopsis thaliana Col-0, UniProt J7FXE8 1-102); assay: as above; settings: protein: recombinant; tags: His6 (pET-28a); label: 5' biotin; blunt
His6-S-HsfB1 = His6-S-HsfB1 (Arabidopsis thaliana Col-0, UniProt J7FYU6 1-86); assay: as above; settings: protein: recombinant; tags: His6 (pET-28a); label: 5' biotin; blunt
His6-tDBD = His6-tDBD (Arabidopsis thaliana Col-0, UniProt J7G1E7 42-103); assay: as above; settings: protein: recombinant; tags: His6 (pET-28a); label: 5' biotin; blunt
His6-S-HsfB2a = His6-S-HsfB2a (Arabidopsis thaliana Col-0, UniProt J7G5V7 1-85); assay: as above; settings: protein: recombinant; tags: His6 (pET-28a); label: 5' biotin; blunt
His6-HsfA2 [2] = biological target: T1, His6-HsfA2; assay: streptavidin-agarose pull-down; 0 hr prebinding control; EMSA: LightShift kit 1x binding buffer, 50 ng poly(dI-dC), 2.5% glycerol, 0.05% NP-40, 5 mM MgCl2, 100 ng protein, 1.5 ng probe, 30 min, room temperature; pull-down: 50 mM Tris-HCl pH 7.5, 100 mM NaCl, 0.1% Triton X-100, poly(dI-dC), 25 C; settings: protein: recombinant; tags: His6 (pET-28a); chain copies: 3; label: 5' biotin; blunt
His6-DBD = His6-DBD (Arabidopsis thaliana Col-0, UniProt O80982 42-135); assay: EMSA; EMSA: LightShift kit 1x binding buffer, 50 ng poly(dI-dC), 2.5% glycerol, 0.05% NP-40, 5 mM MgCl2, 100 ng protein, 1.5 ng probe, 30 min, room temperature; pull-down: 50 mM Tris-HCl pH 7.5, 100 mM NaCl, 0.1% Triton X-100, poly(dI-dC), 25 C; settings: protein: recombinant; tags: His6 (pET-28a); label: 5' biotin; blunt
Sequence of His6-DBD (O80982 42-135): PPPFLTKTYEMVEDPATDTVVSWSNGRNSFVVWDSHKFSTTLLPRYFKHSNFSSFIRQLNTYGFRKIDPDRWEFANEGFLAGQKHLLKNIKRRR

T1 sequence (O80982 whole entry): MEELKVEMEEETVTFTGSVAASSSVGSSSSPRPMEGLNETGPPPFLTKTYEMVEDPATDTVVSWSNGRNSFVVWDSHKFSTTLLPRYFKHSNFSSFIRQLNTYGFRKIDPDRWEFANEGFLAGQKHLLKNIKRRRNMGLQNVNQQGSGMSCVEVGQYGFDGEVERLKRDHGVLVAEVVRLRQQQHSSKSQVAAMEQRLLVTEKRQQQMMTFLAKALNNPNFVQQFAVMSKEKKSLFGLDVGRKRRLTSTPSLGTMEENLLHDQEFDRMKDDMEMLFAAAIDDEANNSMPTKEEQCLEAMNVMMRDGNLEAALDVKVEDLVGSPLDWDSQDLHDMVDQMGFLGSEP
Sequence of His6-tDBD (J7G1E7 entry or part of it): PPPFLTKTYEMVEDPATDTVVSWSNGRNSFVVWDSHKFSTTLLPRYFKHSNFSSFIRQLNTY
Sequence of His6-S-HsfB1 (J7FYU6 entry or part of it): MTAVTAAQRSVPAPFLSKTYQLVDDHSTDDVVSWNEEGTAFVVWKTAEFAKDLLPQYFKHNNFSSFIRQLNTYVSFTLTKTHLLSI
Sequence of His6-S-HsfB2a (J7G5V7 entry or part of it): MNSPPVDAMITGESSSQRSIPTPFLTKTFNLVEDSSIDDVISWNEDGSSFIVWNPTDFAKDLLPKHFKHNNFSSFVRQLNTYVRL
Sequence of His6-S-HsfA4c (J7FXE8 entry or part of it): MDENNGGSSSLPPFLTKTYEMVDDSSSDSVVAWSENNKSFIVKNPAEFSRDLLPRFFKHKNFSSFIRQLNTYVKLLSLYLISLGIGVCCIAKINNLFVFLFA

Binder | binding result (His6-HsfA2 [1]) | binding result (His6-S-HsfA4c) | binding result (His6-S-HsfB1) | binding result (His6-tDBD) | binding result (His6-S-HsfB2a) | binding result (His6-HsfA2 [2]) | binding result (His6-DBD)
B1 | no binding | binds | binds | binds | no binding |  | 
B2 |  |  |  |  |  | binds | binds

From article PMC12582567, “Short heat shock factor A2 regulates heat resistance and growth balance in Arabidopsis”
